Assay results from PMC12150756 (Infection and Immunity, 2025).
Where a chain is given by its changes, count along the chain named. Where two headings read alike, the source gives them in different places.

B1: sdAb7 (VHH)
VHH: QVQLQESGGGVVQTGGSLRLSCAASVRTFSNYALGWFRQAPGKEREFVARISSSGGNTYYADSVRGRFTISRDNAKNTVYLQMNSLKPEDTAVYYCAADLLQFGRSSRAADYDYWGQGTQVTVSS
B2: sdAb1, anti-PfCSP camelid single-domain antibody (VHH)
VHH: B1 VHH with V11L, T14A, V26G, N31S, A33S, L34M, Q39L, A40V
notes: from the library of the alpaca Attitude (immunized with PfCSPFL); Expressed from pMECS-GG; Same VHH family as sdAb9; source: E. coli WK6, periplasmic extract, purified (Ni-NTA, SEC); crude bacterial extract for the screening ELISA
B3: sdAb18 (VHH)
VHH: QVQLQESGGGLVQPGGSLNLSCTAGVSLDYYAIGWFRQAPGKEREFVARISSSGGNTYYADSVRGRFTISRDNAKNTVYLQMNSLKPEDTAVYYCAADLLQFGRSSRAADYDYWGQGTQVTVSS
B4: sdAb5 (VHH)
VHH: QVQLQESGGGLVQAGGSLRLSCAASGRTFGSYVMGWFRQAPGKEREFVAAISRSGGTTYYADSVKGRFAISRDNAKNTVFLQMNSLKPEDTAVYYCAATTTISMLVVLTTTPKYDYWGQGTQVTVSS
B5: sdAb15 (VHH)
VHH: QVQLQESGGGLVQAGGSLRLSCVATGRPFDDYTVAWFRQAPGKERDFVAAISRSGVSTYYQDDVKGRFTISRDNARNTAYLSMNSLKPEDTAVYYCAARSTIRLLTDPSYDYWGQGTQVTVSS
B6: sdAb4 (VHH)
VHH: QVQLQESGGGLVQVGGSLRLSCAASGRTFSSYTMAWFRQAPGKEREFVAAISRSGSNTYYADSVKGRFTISRDNAKNTVYLQMSSLYPEDTAVYTCAARDAILLLTTTHYDYWGQGTQVTVSS
B7: sdAb3 (VHH)
VHH: QVQLQESGGGLVQAGGSLRLSCAASGRTFTEYSMGWFRQAPGKEREFVARISWSGGSTYYADSVKGRFTISRDNAENTVYLQMTSLKPEDTAVYYCAADQLQFGRNSRAADYDDWGQGTQVTVSS
B8: sdAb9, anti-PfCSP camelid single-domain antibody (VHH)
VHH: QVQLQESGGGLVQAGGSLRLSCAASGRTFSSYSMGWFRQVPGKEREFVARITSSGGNTDYADSAKGRFTISRDNAKNTVYLQMSTLKPEDTAVYYCAADLWQYGRNSRAADYDYWGQGTQVTVSS
notes: from the library of the alpaca Attitude (immunized with PfCSPFL); Expressed from pMECS-GG; Same VHH family as sdAb1; source: E. coli WK6, periplasmic extract, purified (Ni-NTA, SEC); crude bacterial extract for the screening ELISA
B9: sdAb6 (VHH)
VHH: QVQLQESGGGLVQAGGSLRVSCVGSGRAFSRYSMGWFRQFPGKEREFVACISSSGGAIDYADSVKGRFTISRDNAKNAVYLQMNSLKPDDTAVYYCAADQFRISTVPMGVIDYWGQGTQVTVSS
B10: sdAb10 (VHH)
VHH: QVQLQESGGGLVQPGGSLRLSCAASGRTFSSYTMGWFRQAPGKERELVAAISRSGLNTDYADSVKGRFTISRDNAKNTVYLQMNTLKPEDTAVYYCAARSTIRLLTDPSYDYWGQGTQVTVSS
B11: sdAb8 (VHH)
VHH: QVQLQESGGGLVQAGGSLRLSCAASGRTVSSYTMGWFRQAPGKERSFVAASLRSGGSTYYSDSVKGRFTISRDNAKNTVYLQMNSLRPEDTAVYYCAADEQLAYNINYNYRNYDYWGQGTQVTVSS
B12: sdAb2 (VHH)
VHH: QVQLQESGGGLVQFGGSLRLSCAASGFTFSSANMSWVRQAPGKGLEWVSTISPGGGTTSYAGSVKGRFTISRDNAKNTLYLQMNALKPEDTAVYYCATGGPSSQESVYRGQGTQVTVSS

Columns and labels:
[1] = molecular target: T1, PfCSPC, C-terminal αTSR domain of P. falciparum NF54 circumsporozoite protein (E310-S384) (P. falciparum NF54, UniProt P19597)
[2] = molecular target: T2, PfCSPFL, recombinant full-length P. falciparum NF54 circumsporozoite protein devoid of signal peptide and GPI … (P. falciparum NF54, UniProt P19597)
[3] = molecular target: T3, full-length CSP from P. falciparum 3D7 on the surface of transgenic P. berghei ANKA sporozoites (PfCSP-PbSPZs) (P. falciparum 3D7, UniProt Q7K740); experiment: flow cytometry on cells; salivary gland PfCSP-PbSPZs (15- and 22-day-old), formaldehyde-fixed; sdAb incubated at ambient temperature; detected with anti-HA Alexa Fluor 647; MFI; settings: one partner purified
T3 construct: Full-length circumsporozoite protein of P. falciparum 3D7, expressed on transgenic P. berghei ANKA sporozoites; The same protein on midgut (MG) and salivary gland (SG) sporozoites; the assays tell them apart; also called PfCSP on MG SPZs; PfCSP on SG SPZs; source: transgenic P. berghei ANKA sporozoites isolated from midguts or salivary glands of Anopheles stephensi

[4] = molecular target: T1, PfCSPC, C-terminal αTSR domain of P. …; experiment: crystal structure; sdAb:PfCSPC complex prepared at 1.2:1, purified by SEC in 20 mM Tris-HCl, 150 mM NaCl, pH 7.5; sitting drop at 20°C; tags retained; data to ~2.1 Å; settings: both partners purified
[5] = molecular target: PbCSPFL, recombinant full-length P. berghei ANKA circumsporozoite protein devoid of signal peptide and GPI … (Plasmodium berghei ANKA, UniProt P23093); experiment: ELISA; antigen coated at 1 µg/mL on Maxisorb plates, blocked with 5% milk in PBS; purified sdAb at 1 µg/mL, 1 h at room temperature, triplicates; detected with anti-HA mAb and anti-mouse-HRP; settings: both partners purified
[6] = molecular target: T2, PfCSPFL, recombinant full-length P. …; experiment: as above; settings: both partners purified

T1 sequence (P19597 310-384): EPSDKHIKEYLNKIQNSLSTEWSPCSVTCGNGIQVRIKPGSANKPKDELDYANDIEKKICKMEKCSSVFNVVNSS
T2 sequence (P19597 20-384): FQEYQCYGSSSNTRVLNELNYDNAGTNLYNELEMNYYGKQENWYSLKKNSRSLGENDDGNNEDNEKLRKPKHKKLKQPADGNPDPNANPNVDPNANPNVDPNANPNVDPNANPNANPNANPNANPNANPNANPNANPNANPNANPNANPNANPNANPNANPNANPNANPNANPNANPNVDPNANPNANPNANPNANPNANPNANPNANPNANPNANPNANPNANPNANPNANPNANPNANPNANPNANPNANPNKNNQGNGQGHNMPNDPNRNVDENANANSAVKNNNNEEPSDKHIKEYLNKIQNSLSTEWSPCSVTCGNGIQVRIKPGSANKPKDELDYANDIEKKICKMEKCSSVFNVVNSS
T3 sequence (Q7K740 19-374): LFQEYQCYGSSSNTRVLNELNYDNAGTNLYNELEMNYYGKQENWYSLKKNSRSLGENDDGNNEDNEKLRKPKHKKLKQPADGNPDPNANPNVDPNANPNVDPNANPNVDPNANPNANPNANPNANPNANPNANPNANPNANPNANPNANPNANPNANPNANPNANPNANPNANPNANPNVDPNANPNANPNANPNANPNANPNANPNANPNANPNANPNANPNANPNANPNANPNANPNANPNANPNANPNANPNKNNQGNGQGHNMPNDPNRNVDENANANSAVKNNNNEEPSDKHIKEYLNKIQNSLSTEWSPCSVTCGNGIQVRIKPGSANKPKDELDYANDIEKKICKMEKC

Row | Binder | binding result [1] | binding result [2] | binding result [3] | binding result [4] | binding result [5] | binding result [6]
1 | B1 | binds | binds | – | – | – | –
2 | B2 | – | – | binds | binds | no binding (tested: 1 µg/mL sdAb) | binds
3 | B3 | binds | binds | – | – | – | –
4 | B4 | binds | binds | – | – | – | –
5 | B5 | binds | binds | – | – | – | –
6 | B6 | binds | binds | – | – | – | –
7 | B7 | binds | binds | – | – | – | –
8 | B8 | – | – | binds | binds | no binding (tested: 1 µg/mL sdAb) | binds
9 | B9 | binds | binds | – | – | – | –
10 | B10 | binds | binds | – | – | – | –
11 | B11 | binds | binds | – | – | – | –
12 | B12 | binds | binds | – | – | – | –
